The supplement of paper PMC9876800

System: peptide library, one residue held at a place counted from the S/T acceptor
Test: relative phosphorylation of the sub-library (ratio to the mean residue at this position); higher = residue favoured
Summary of the method: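 Relative sub-library phosphorylation is the ratio of each sub-library's signal to the mean residue at that position. The signal came from phosphorimaging of spots on streptavidin membranes, quantified by densitometry, after purified recombinant kinases reacted with biotinylated degenerate peptide sub-libraries in 384-well plates. Reactions held 50 μM peptide and 50 μM ATP spiked with γ-32P-ATP for 90 min under kinase-specific conditions.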

Chain of CAMK2B, construct: Full length, human (Q13554 whole entry, looked up): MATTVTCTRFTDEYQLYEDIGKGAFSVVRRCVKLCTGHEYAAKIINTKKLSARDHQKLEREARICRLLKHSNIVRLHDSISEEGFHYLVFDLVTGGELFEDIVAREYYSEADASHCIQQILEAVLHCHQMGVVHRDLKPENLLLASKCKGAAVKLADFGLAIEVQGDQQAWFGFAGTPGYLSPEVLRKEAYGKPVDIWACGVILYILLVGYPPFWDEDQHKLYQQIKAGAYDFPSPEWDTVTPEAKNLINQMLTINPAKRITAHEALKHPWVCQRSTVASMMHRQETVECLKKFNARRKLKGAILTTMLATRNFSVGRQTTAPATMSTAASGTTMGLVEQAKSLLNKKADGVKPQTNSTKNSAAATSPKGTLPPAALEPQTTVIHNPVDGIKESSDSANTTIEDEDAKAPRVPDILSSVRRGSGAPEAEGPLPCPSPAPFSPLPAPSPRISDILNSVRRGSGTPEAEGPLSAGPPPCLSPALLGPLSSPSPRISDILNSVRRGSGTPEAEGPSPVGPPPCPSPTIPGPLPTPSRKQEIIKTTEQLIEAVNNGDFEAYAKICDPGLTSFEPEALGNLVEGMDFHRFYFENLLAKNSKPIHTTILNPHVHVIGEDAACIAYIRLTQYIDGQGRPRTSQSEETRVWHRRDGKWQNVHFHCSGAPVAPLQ
Chain of TLK2, construct: aa388-end, human (Q86UE8 388-772, looked up): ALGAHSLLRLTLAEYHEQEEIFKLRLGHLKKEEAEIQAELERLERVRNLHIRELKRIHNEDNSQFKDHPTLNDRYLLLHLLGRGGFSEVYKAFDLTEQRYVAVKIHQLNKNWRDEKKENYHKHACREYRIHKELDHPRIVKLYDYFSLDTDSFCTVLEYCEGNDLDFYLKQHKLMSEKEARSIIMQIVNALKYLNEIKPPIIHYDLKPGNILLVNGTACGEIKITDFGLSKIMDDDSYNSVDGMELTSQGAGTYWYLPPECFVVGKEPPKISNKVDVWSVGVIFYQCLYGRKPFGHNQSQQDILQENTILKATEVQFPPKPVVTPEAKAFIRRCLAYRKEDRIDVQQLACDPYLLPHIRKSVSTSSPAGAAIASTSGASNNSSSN
Chain of VRK2, construct: Full length, human (Q86Y07 whole entry, looked up): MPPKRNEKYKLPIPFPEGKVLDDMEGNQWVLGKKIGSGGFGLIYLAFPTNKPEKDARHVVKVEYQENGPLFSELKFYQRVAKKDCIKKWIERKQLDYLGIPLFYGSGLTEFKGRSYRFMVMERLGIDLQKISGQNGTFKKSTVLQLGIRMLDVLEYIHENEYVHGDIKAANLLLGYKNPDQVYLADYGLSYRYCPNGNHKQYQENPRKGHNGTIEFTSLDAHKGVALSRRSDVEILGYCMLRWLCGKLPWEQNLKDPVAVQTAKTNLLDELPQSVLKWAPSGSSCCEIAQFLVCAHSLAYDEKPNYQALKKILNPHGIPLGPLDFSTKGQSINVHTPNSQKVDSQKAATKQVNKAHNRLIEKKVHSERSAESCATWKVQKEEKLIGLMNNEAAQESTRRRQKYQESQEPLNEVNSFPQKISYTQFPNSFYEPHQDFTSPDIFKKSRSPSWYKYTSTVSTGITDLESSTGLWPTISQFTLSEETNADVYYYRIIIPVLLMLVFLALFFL

VRK2, construct: Full length, human (from UniProt Q86Y07)
relative phosphorylation
Conditions | at +1 | at +2 | at +3 | at +4 | at -1 | at -2 | at -3 | at -4 | at -5
A fixed | 0.906 | 0.925 | 0.998 | 1.07 | 0.943 | 1 | 1.06 | 1.12 | 1.08
D fixed | 0.579 | 0.622 | 0.675 | 0.977 | 0.788 | 0.836 | 0.812 | 0.845 | 0.97
E fixed | 0.659 | 0.575 | 0.629 | 0.791 | 0.67 | 0.804 | 0.829 | 0.917 | 0.862
F fixed | 0.883 | 1.23 | 1.05 | 1.04 | 0.86 | 0.978 | 0.971 | 0.957 | 0.974
G fixed | 1.02 | 1.11 | 1.15 | 1.17 | 0.959 | 1.58 | 1.23 | 1.24 | 1.15
H fixed | 0.842 | 0.985 | 1.28 | 1.14 | 1.39 | 1.04 | 1.12 | 1.04 | 1.17
I fixed | 1.23 | 1.34 | 0.907 | 0.881 | 1.03 | 0.824 | 0.927 | 0.875 | 0.866
K fixed | 0.949 | 0.924 | 0.875 | 0.887 | 1.04 | 0.919 | 0.881 | 0.945 | 0.979
L fixed | 0.796 | 1.33 | 0.896 | 0.937 | 1.15 | 1.01 | 0.933 | 0.875 | 0.866
M fixed | 1.01 | 1.27 | 0.872 | 0.954 | 1.02 | 1.16 | 0.98 | 0.96 | 0.885
N fixed | 0.759 | 0.726 | 1.05 | 0.979 | 0.956 | 0.966 | 0.985 | 0.917 | 0.906
P fixed | 1.15 | 0.703 | 0.759 | 1.03 | 1.1 | 1.08 | 1.27 | 1.22 | 1.16
Q fixed | 1.13 | 0.873 | 0.875 | 0.905 | 0.914 | 0.969 | 0.878 | 0.887 | 0.922
R fixed | 1.57 | 0.836 | 1.37 | 0.937 | 1.06 | 1.06 | 1.06 | 1.04 | 1.05
V fixed | 1.53 | 1.07 | 0.935 | 0.912 | 1.22 | 0.877 | 0.936 | 0.996 | 0.974
W fixed | 1.04 | 1.3 | 1.6 | 1.32 | 0.876 | 0.964 | 1.06 | 1.11 | 1.07
Y fixed | 0.948 | 1.17 | 1.09 | 1.07 | 1.03 | 0.935 | 1.06 | 1.06 | 1.11
pThr fixed | 0.648 | 0.686 | 0.733 | 1.08 | 0.83 | 0.792 | 0.923 | 1 | 1.01
pTyr fixed | 0.826 | 0.883 | 0.914 | 1.4 | 0.861 | 0.8 | 0.982 | 1.02 | 0.981

TLK2, construct: aa388-end, human (from UniProt Q86UE8)
relative phosphorylation
Conditions | at +1 | at +2 | at +3 | at +4 | at -1 | at -2 | at -3 | at -4 | at -5
A fixed | 0.501 | 0.95 | 1.3 | 1.23 | 1.13 | 1.14 | 1.07 | 1.1 | 1.22
D fixed | 0.281 | 1.07 | 1.01 | 1.06 | 0.949 | 2.24 | 2 | 1.67 | 1.91
E fixed | 0.329 | 0.512 | 1.33 | 0.879 | 0.751 | 3.21 | 1.46 | 1.68 | 1.45
F fixed | 0.533 | 1.32 | 1.19 | 1.26 | 1.04 | 0.553 | 0.674 | 0.878 | 0.801
G fixed | 0.36 | 1.69 | 1.69 | 1.24 | 0.72 | 1.69 | 1.42 | 1.27 | 1.19
H fixed | 0.799 | 1.45 | 0.932 | 0.899 | 1.6 | 1.05 | 0.979 | 1.07 | 1.05
I fixed | 0.995 | 0.768 | 0.583 | 0.843 | 0.542 | 0.435 | 0.531 | 0.668 | 0.621
K fixed | 0.624 | 0.451 | 0.52 | 0.603 | 0.95 | 0.502 | 0.702 | 0.703 | 0.879
L fixed | 1.34 | 0.873 | 0.654 | 0.867 | 0.61 | 0.418 | 0.637 | 0.678 | 0.663
M fixed | 2.11 | 1.27 | 0.823 | 0.913 | 0.862 | 0.592 | 0.77 | 0.857 | 0.737
N fixed | 2.41 | 0.671 | 0.682 | 0.692 | 1.29 | 1.22 | 1.26 | 1.19 | 1.08
P fixed | 0.225 | 1.03 | 1.66 | 1.79 | 0.634 | 0.77 | 1.36 | 1.17 | 1
Q fixed | 2.67 | 1.19 | 0.765 | 0.782 | 1.23 | 1.06 | 0.972 | 0.852 | 0.865
R fixed | 1.53 | 0.482 | 0.483 | 0.506 | 0.827 | 0.499 | 0.743 | 0.674 | 0.814
V fixed | 1.06 | 0.675 | 0.814 | 0.944 | 0.807 | 0.495 | 0.584 | 0.684 | 0.72
W fixed | 0.686 | 1.62 | 1.42 | 1.35 | 1.58 | 0.5 | 0.953 | 1.06 | 1.1
Y fixed | 0.543 | 0.974 | 1.13 | 1.13 | 1.48 | 0.638 | 0.879 | 0.803 | 0.894
pThr fixed | 0.552 | 0.633 | 1.09 | 1.41 | 0.434 | 0.883 | 1.29 | 1.31 | 1.31
pTyr fixed | 0.65 | 1.52 | 1.94 | 1.76 | 1.4 | 2.55 | 1.35 | 1.36 | 1.4

CAMK2B, construct: Full length, human (from UniProt Q13554)
relative phosphorylation
Conditions | at +1 | at +2 | at +3 | at +4 | at -1 | at -2 | at -3 | at -4 | at -5
A fixed | 0.454 | 0.673 | 1.07 | 0.895 | 0.744 | 1.02 | 0.589 | 0.903 | 0.883
D fixed | 0.842 | 4.46 | 2.37 | 2.5 | 1.57 | 0.86 | 0.527 | 0.849 | 0.702
E fixed | 1.45 | 3.53 | 2.59 | 2.45 | 1.32 | 1.05 | 0.627 | 1.21 | 0.659
F fixed | 2.27 | 0.366 | 0.6 | 0.619 | 0.736 | 0.523 | 0.58 | 0.852 | 1.19
G fixed | 0.573 | 0.828 | 1.26 | 1.09 | 1.06 | 1.46 | 0.774 | 1.04 | 0.836
H fixed | 0.758 | 0.895 | 0.881 | 0.893 | 1.15 | 1.1 | 1.03 | 1.04 | 0.803
I fixed | 1.52 | 0.405 | 0.575 | 0.529 | 0.482 | 0.336 | 0.325 | 0.729 | 1.08
K fixed | 0.457 | 0.32 | 0.489 | 0.459 | 1.01 | 0.848 | 2.02 | 1.29 | 0.791
L fixed | 1.1 | 0.332 | 0.729 | 0.506 | 0.738 | 0.367 | 0.382 | 0.707 | 1.71
M fixed | 1.52 | 0.426 | 0.648 | 0.612 | 0.948 | 1.01 | 0.652 | 1.07 | 1.12
N fixed | 0.837 | 1.3 | 1.13 | 1.05 | 1.48 | 1.38 | 0.929 | 0.983 | 0.749
P fixed | 0.295 | 0.525 | 0.932 | 1.43 | 1.45 | 0.471 | 1.11 | 1.03 | 1.05
Q fixed | 1.43 | 1.1 | 1.14 | 1.02 | 1.41 | 3.49 | 1.22 | 1.14 | 0.893
R fixed | 0.566 | 0.381 | 0.438 | 0.458 | 0.795 | 1.06 | 4.44 | 1.3 | 1.16
V fixed | 1.42 | 0.467 | 0.62 | 0.638 | 0.592 | 0.388 | 0.365 | 0.815 | 1.2
W fixed | 0.534 | 0.397 | 0.701 | 0.983 | 0.486 | 0.992 | 0.758 | 0.958 | 1.16
Y fixed | 0.988 | 0.593 | 0.827 | 0.882 | 1.03 | 0.651 | 0.679 | 1.09 | 1.03
pThr fixed | 1.72 | 1.39 | 1.97 | 3.94 | 0.586 | 0.581 | 0.708 | 0.806 | 0.783
pTyr fixed | 1.76 | 4.63 | 1.88 | 2.72 | 1.75 | 0.651 | 0.664 | 0.835 | 0.902
